Experimental data published in patent US20210253718A1, “FRIZZLED5 PROTEIN-BINDING AGENTS” (Modmab Therapeutics Corporation, priority 2016, published 2021).
Residue numbers refer to the chain shown, from its start.

T1: FZD5 CRD (Homo sapiens, UniProt Q13467)
T1 construct: K29-T156; GPI anchor signal (C); expressed in transfected cells; host or cells: CHO cells, lentiviral pLenti-puro
T1 sequence (Q13467 29-156): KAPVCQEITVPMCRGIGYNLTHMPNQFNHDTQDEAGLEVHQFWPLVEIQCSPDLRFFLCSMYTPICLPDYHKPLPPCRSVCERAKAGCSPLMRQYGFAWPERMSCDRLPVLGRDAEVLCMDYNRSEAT

T2: FZD8 CRD (Homo sapiens, UniProt Q9H461)
T2 construct: K31-D155; GPI anchor signal (C); expressed in transfected cells; host or cells: CHO cells, lentiviral pLenti-puro
T2 sequence (Q9H461 31-155): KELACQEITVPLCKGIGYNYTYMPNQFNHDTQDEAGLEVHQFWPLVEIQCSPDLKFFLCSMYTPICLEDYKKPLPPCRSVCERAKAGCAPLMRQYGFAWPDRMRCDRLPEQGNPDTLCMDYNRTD

B1: Fab-2928: anti-FZD5 Fab with antibody variable region Fv-2928; CDR SEQ ID NOs: 35, 36, 67, 105, 143, 175 (antibody, V domains shown)
VH: EVQLVESGGGLVQPGGSLRLSCAASGFNISYSSIHWVRQAPGKGLEWVASIYPSYSSTYYADSVKGRFTISADTSKNTAYLQMNSLRAEDTAVYYCARYYAMDYWGQGTLVTVSS
VL: DIQMTQSPSSLSASVGDRVTITCRASQSVSSAVAWYQQKPGKAPKLLIYSASSLYSGVPSRFSGSRSGTDFTLTISSLQPEDFATYYCQQAFYYPITFGQGTKVEIK
B2: Fab-2900: anti-FZD5 Fab with antibody variable region Fv-2900; CDR SEQ ID NOs: 35, 36, 39, 78, 115, 153 (antibody, V domains shown)
VH: EVQLVESGGGLVQPGGSLRLSCAASGFNLSSYYIHWVRQAPGKGLEWVASISSSSSSTSYADSVKGRFTISADTSKNTAYLQMNSLRAEDTAVYYCARGALDYWGQGTLVTVSS
VL: DIQMTQSPSSLSASVGDRVTITCRASQSVSSAVAWYQQKPGKAPKLLIYSASSLYSGVPSRFSGSRSGTDFTLTISSLQPEDFATYYCQQWYSGSSLFTFGQGTKVEIK
B3: Fab-2910: anti-FZD5 Fab with antibody variable region Fv-2910; CDR SEQ ID NOs: 35, 36, 49, 88, 125, 162 (antibody, V domains shown)
VH: B2 VH with L29I, S31Y, Y32S, I34M, S52Y, L101M
VL: DIQMTQSPSSLSASVGDRVTITCRASQSVSSAVAWYQQKPGKAPKLLIYSASSLYSGVPSRFSGSRSGTDFTLTISSLQPEDFATYYCQQWYGSHLITFGQGTKVEIK
B4: Fab-2925: anti-FZD5 Fab with antibody variable region Fv-2925; CDR SEQ ID NOs: 35, 36, 64, 102, 140, 172 (antibody, V domains shown)
VH: EVQLVESGGGLVQPGGSLRLSCAASGFNLSYSSMHWVRQAPGKGLEWVASIYPSYGSTYYADSVKGRFTISADTSKNTAYLQMNSLRAEDTAVYYCARYGYFGLDYWGQGTLVTVSS
VL: B2 VL with W91A, Y92W, S93V, G94Y, S95A
B5: Fab-2929: anti-FZD5 Fab with antibody variable region Fv-2929; CDR SEQ ID NOs: 35, 36, 68, 106, 144, 162 (antibody, V domains shown)
VH: B2 VH with L29I, S31Y, S52Y, S53P, L101M
VL: B2 VL with G94S, S95Y, S96G, F98I
B6: Fab-2907: anti-FZD5 Fab with antibody variable region Fv-2907; CDR SEQ ID NOs: 35, 36, 46, 85, 122, 159 (antibody, V domains shown)
VH: EVQLVESGGGLVQPGGSLRLSCAASGFNIYSSYMHWVRQAPGKGLEWVASISSYSGSTYYADSVKGRFTISADTSKNTAYLQMNSLRAEDTAVYYCARSSWGAYIVSYGFDYWGQGTLVTVSS
VL: B2 VL with W91V, Y92G, S93Y, G94W, S95W, S96G, F98I
B7: Fab-2905: anti-FZD5 Fab with antibody variable region Fv-2905; CDR SEQ ID NOs: 35, 36, 44, 83, 120, 157 (antibody, V domains shown)
VH: EVQLVESGGGLVQPGGSLRLSCAASGFNLSYYYMHWVRQAPGKGLEWVASIYSSYSYTSYADSVKGRFTISADTSKNTAYLQMNSLRAEDTAVYYCARSGYALDYWGQGTLVTVSS
VL: DIQMTQSPSSLSASVGDRVTITCRASQSVSSAVAWYQQKPGKAPKLLIYSASSLYSGVPSRFSGSRSGTDFTLTISSLQPEDFATYYCQQSSWYYGYPFTFGQGTKVEIK
B8: Fab-2918: anti-FZD5 Fab with antibody variable region Fv-2918; CDR SEQ ID NOs: 35, 36, 57, 96, 133, 169 (antibody, V domains shown)
VH: B4 VH with M34I, P53S, G56S, Y59S, Y99F, F102W, G103A, L104I
VL: B3 VL with W91A, Y92F, S94A, H95S, I97F
B9: Fab-2915: anti-FZD5 Fab with antibody variable region Fv-2915; CDR SEQ ID NOs: 35, 36, 54, 93, 130, 166 (antibody, V domains shown)
VH: EVQLVESGGGLVQPGGSLRLSCAASGFNIYYYSMHWVRQAPGKGLEWVASIYSSYGYTSYADSVKGRFTISADTSKNTAYLQMNSLRAEDTAVYYCARGYHYYPYYSGLDYWGQGTLVTVSS
VL: B3 VL with W91A, G93Y, S94H, H95S
B10: Fab-2909: anti-FZD5 Fab with antibody variable region Fv-2909; CDR SEQ ID NOs: 35, 36, 48, 87, 124, 161 (antibody, V domains shown)
VH: EVQLVESGGGLVQPGGSLRLSCAASGFNISSSYMHWVRQAPGKGLEWVASISSSSGYTSYADSVKGRFTISADTSKNTAYLQMNSLRAEDTAVYYCARTVRGSKKPYFSGWAMDYWGQGTLVTVSS
VL: B2 VL with W91S, Y92W, G94Y, S95H, S96Y, F98I
B11: Fab-2913: anti-FZD5 Fab with antibody variable region Fv-2913; CDR SEQ ID NOs: 35, 36, 52, 91, 128, 165 (antibody, V domains shown)
VH: B4 VH with L29I, M34I, S54Y, Y55S, G56S, Y59S, F102Y
VL: B2 VL with Y92G, S93V, G94S, S95H, S96Y

target: T3, FZD1 CRD (Homo sapiens, UniProt Q9UP38); assay: Flow cytometry of anti-FZD5 Fab binding to CHO cells overexpressing Frizzled CRD
T3 construct: D112-P238; GPI anchor signal (C); expressed in transfected cells; host or cells: CHO cells, lentiviral pLenti-puro
Procedure, shortened: (§1)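 CHO lines each expressing a different human Frizzled CRD, myc-tagged and GPI-anchored at the surface, stained with 200 nM Fab, then Alexa Fluor 488 F(ab′)2 secondary. Dead cells excluded by viability dye; anti-c-Myc staining served as expression control. Binding read by flow cytometry.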

Median fluorescence, Frizzled CRD overexpressed on CHO cells: FZD1	Molecule
18.43	B1
31.06	B2
6.67	B3
19.46	B4
7.64	B5
3.28	B6
3.75	B7
11.97	B8

target: T1, FZD5 CRD; assay: as above
Procedure, shortened: as §1

Median fluorescence, Frizzled CRD overexpressed on CHO cells: FZD5	Molecule
32.78	B6
27.63	B9

target: T4, FZD7 CRD (Homo sapiens, UniProt O75084); assay: as above
T4 construct: D45-S169; GPI anchor signal (C); expressed in transfected cells; host or cells: CHO cells, lentiviral pLenti-puro
Procedure, shortened: as §1

Median fluorescence, Frizzled CRD overexpressed on CHO cells: FZD7	Molecule
8.98	B2
24.14	B4
2.62	B6
3.43	B7

target: T2, FZD8 CRD; assay: as above
Procedure, shortened: as §1

Median fluorescence, Frizzled CRD overexpressed on CHO cells: FZD8	Molecule
7.57	B1
7.43	B10
7.70	B4
8.98	B11
11.76	B6
8.17	B7
10.00	B9
